Test results from patent US20060241289A1.
Where “and” joins values, the source holds several entries; their conditions need not be identical. Equal entries are not always repeated. Where two headings read alike, the source gives them in different places. Each block holds one binder with its values, some of them ahead of it.

What was measured:
[1] = target: TSH receptor coated onto plastic tubes (UniProt P16473); assay: TSHR coated tubes; 9D33 IgG 1 µg/mL; competitor 125I-9D33
[2] = target: TSH receptor coated onto plastic tubes (UniProt P16473); assay: TSHR coated tubes; 9D33 IgG 10 µg/mL; competitor 125I-9D33
[3] = target: TSH receptor coated onto plastic tubes (UniProt P16473); assay: TSHR coated tubes; 9D33 IgG 0.01 µg/mL; competitor 125I-hMAb TSHR1
[4] = target: TSH receptor coated onto plastic tubes (UniProt P16473); assay: TSHR coated tubes; 9D33 IgG 10 µg/mL; competitor 125I-TSH
[5] = target: TSH receptor coated onto plastic tubes (UniProt P16473); assay: TSHR coated tubes; 9D33 IgG 0.1 µg/mL; competitor 125I-hMAb TSHR1
[6] = target: TSH receptor coated onto plastic tubes (UniProt P16473); assay: 125I-9D33 binding to TSHR coated tubes in the pool of healthy blood donor sera, no 90/672
[7] = target: TSH receptor coated onto plastic tubes (UniProt P16473); assay: TSHR coated tubes; 9D33 IgG 1 µg/mL; competitor 125I-hMAb TSHR1
[8] = target: TSH receptor coated onto plastic tubes (UniProt P16473); assay: 125I-9D33 binding to TSHR coated tubes in the pool of healthy blood donor sera
[9] = target: TSH receptor coated onto plastic tubes (UniProt P16473); assay: TSHR coated tubes; 9D33 IgG 0.001 µg/mL; competitor 125I-TSH
[10] = target: TSH receptor coated onto plastic tubes (UniProt P16473); assay: TSHR coated tubes; 9D33 IgG 0.001 µg/mL; competitor 125I-hMAb TSHR1
[11] = target: TSH receptor coated onto plastic tubes (UniProt P16473); assay: TSHR coated tubes; 9D33 IgG 1 µg/mL; competitor 125I-TSH
[12] = target: TSH receptor coated onto plastic tubes (UniProt P16473); assay: TSHR coated tubes; 9D33 IgG 0.01 µg/mL; competitor 125I-TSH
[13] = target: TSH receptor coated onto plastic tubes (UniProt P16473); assay: TSHR coated tubes; 9D33 IgG 0.1 µg/mL; competitor 125I-9D33
[14] = target: TSH receptor coated onto plastic tubes (UniProt P16473); assay: TSHR coated tubes; 9D33 IgG 10 µg/mL; competitor 125I-hMAb TSHR1
[15] = target: TSH receptor coated onto plastic tubes (UniProt P16473); assay: TSHR coated tubes; 9D33 IgG 0.1 µg/mL; competitor 125I-TSH
[16] = target: TSH receptor coated onto plastic tubes (UniProt P16473); assay: TSHR coated tubes; 9D33 IgG 0.001 µg/mL; competitor 125I-9D33
[17] = target: TSH receptor coated onto plastic tubes (UniProt P16473); assay: TSHR coated tubes; 9D33 IgG 0.01 µg/mL; competitor 125I-9D33
[18] = target: human TSH receptor on CHO cells (human) (UniProt P16473); assay: cell-based or functional assay
[19] = target: human TSH receptor on CHO cells (human) (UniProt P16473); assay: cell-based or functional assay; remark: listed apart in the source

- inhibition of 125I-9D33 binding [1]: 64%
- inhibition of 125I-9D33 binding [2]: 71%
- inhibition of 125I-hMAb TSHR1 binding [3]: 3%
- inhibition of 125I-TSH binding [4]: 68%
- inhibition of 125I-hMAb TSHR1 binding [5]: 21%
- 125I-9D33 bound (% total counts added) [6]: 15%
- inhibition of 125I-hMAb TSHR1 binding [7]: 44%
- 125I-9D33 bound (% total counts added) [8]: 11%
- inhibition of 125I-TSH binding [9]: 0%
- inhibition of 125I-hMAb TSHR1 binding [10]: 0%
- inhibition of 125I-TSH binding [11]: 58%
- inhibition of 125I-TSH binding [12]: 17%
- inhibition of 125I-9D33 binding [13]: 35%
- inhibition of 125I-hMAb TSHR1 binding [14]: 56%
- inhibition of 125I-TSH binding [15]: 34%
- inhibition of 125I-9D33 binding [16]: 4%
- inhibition of 125I-9D33 binding [17]: 9%
B1: 9D33 IgG (mouse monoclonal antibody to the TSHR) (antibody, V domains shown)
VH: DVQIQQPGTELVKPGASVRLSCKASGYTFTTYWMHWVKQRPGQGLEWIGEIDPSDSYTNYNQKFKGKATLTVDKSSSTAYMHLSSLTSEDSAVYYCSRNYGSGYYFDYWGQGTTLTVSS
VL: GVEMTQSPAIMSASPGEKVTMTCSASSSVSYMHWYQQKSGTSPKRWIYDTSKLASGVPARFSGSGSGTSYSLTISSMETEDAATYYCQQWSSNPWTFGGGTKLEIK

- mean pmol cyclic AMP/cell well; 2B4 IgG 100 µg/mL alone (pmol/cell well) [18]: 0.49
- mean pmol cyclic AMP/cell well; pTSH 0.5 ng/mL plus 2B4 IgG 100 µg/mL (pmol/cell well) [18]: 0.78
- pmol cyclic AMP/cell well; 2B4 IgG 100 µg/mL alone (pmol/cell well) [18]: 0.446 and 0.486 and 0.552
- pmol cyclic AMP/cell well; pTSH 0.5 ng/mL plus 2B4 IgG 100 µg/mL (pmol/cell well) [18]: 0.878 and 0.71 and 0.742
- x basal stimulation; 2B4 IgG 100 µg/mL alone [18]: 1.4 x basal
- x basal stimulation; pTSH 0.5 ng/mL plus 2B4 IgG 100 µg/mL [18]: 2.3 x basal
- mean pmol cyclic AMP/cell well; 2B4 IgG 100 µg/mL alone (pmol/cell well) [19]: 0.331
- mean pmol cyclic AMP/cell well; hMAb TSHR1 Fab 5 ng/mL plus 2B4 IgG 100 µg/mL (pmol/cell well) [19]: 2.94
- pmol cyclic AMP/cell well; 2B4 IgG 100 µg/mL alone (pmol/cell well) [19]: 0.298 and 0.318 and 0.376
- pmol cyclic AMP/cell well; hMAb TSHR1 Fab 5 ng/mL plus 2B4 IgG 100 µg/mL (pmol/cell well) [19]: 3.32 and 2.63 and 2.86
- x basal stimulation; 2B4 IgG 100 µg/mL alone [19]: 0.46 x basal
- x basal stimulation; hMAb TSHR1 Fab 5 ng/mL plus 2B4 IgG 100 µg/mL [19]: 4 x basal
B2: 2B4 IgG (mouse monoclonal antibody to the TSHR) (antibody, from another filing, V domains shown)
VH: DVQLQQSGTVLARPGASVRMSCKASGYSFTRYWIHWLKQRPGQGLEWIGAIFPGNRDTSYNQRFKGKAEVTAVTSASTAYLDLSSLTNEDSAVYYCTRWPYYGSIYVNFDYWGQGTTLTVSS
VL: DIVMTQSPLSLPVSLGDQASISCRTSQNLVHRNGNTYLHWYLQKPGQSPKLLIYKISNRFSGVPDRFSGSGSGTDFTLKISRVEAEDLGVYFCSQGTHVPPTFGGGTKLEIKR
